# Measured values from publication PMC7984243, “Mechanistic characterization of UDP‐glucuronic acid 4‐epimerase” (The Febs Journal, 2020).
# B1: UDP-glucuronic acid 4-epimerase (BcUGAepi) (Bacillus cereus HuA2-4) (protein)
# chain: MKILVTGAAGFIGSHLCQALLKNSAYHVVGIDHFIGPTPATLKTGNIQSLELNSRFQFIREDILNTDLSKLLQDIDVVYHLAAIPGVRTSWGKDFQPYVTNNIMVTQQLLEACKHIKLDKFIHISTSSVYGEKSGAVSEDLLPIPLSPYGVTKLSGEHLCHVYHKNFHIPIVILRYFTVYGPRQRPDMAFHRLIKQMLEDKPLTIFGDGTQTRDFTYIDDCIRGTVAALETKKNIIGEVINIGGKEQASILDIISMLEKISGKSATKNFLKSVPGEPKQTWADISKASTLLQYSPTVSLSDGLEAEYDYIKQLYKGDAAWSHPQFEK
# Columns and labels:
# [1] = molecular target: T1, BcUGAepi (UDP-glucuronic acid 4-epimerase) (Bacillus cereus group, UniProt Z9OZ01HDE8); assay: HPLC of cofactor released from denatured enzyme; format: binding
# T1 construct: C-terminal Strep-tag kept; synthetic gene in pET17b; expressed in E. coli Lemo21(DE3); monomer 37003 g/mol
# [2] = system: BcUGAepi (UDP-glucuronic acid 4-epimerase); conditions: tightly bound cofactor of the isolated enzyme
# [3] = system: BcUGAepi (UDP-glucuronic acid 4-epimerase); conditions: 1 mM UDP-GlcA; 135 µM enzyme; 100 µM NAD+; pH 7.6; 23 °C
# [4] = system: O=C(O)[C@H]1O[C@H](OP(=O)(O)OP(=O)(O)OC[C@H]2O[C@@H](n3ccc(=O)[nH]c3=O)[C@H](O)[C@@H]2O)[C@H](O)[C@@H](O)[C@@H]1O; assay: purified protein; conditions: forward epimerization, 50 µM NAD+, 50 mM sodium phosphate, 100 mM NaCl, pH 7.6, room temperature (23 °C)
# [5] = system: O=C(O)[C@H]1O[C@H](OP(=O)(O)OP(=O)(O)OC[C@H]2O[C@@H](n3ccc(=O)[nH]c3=O)[C@H](O)[C@@H]2O)[C@H](O)[C@@H](O)[C@H]1O; assay: purified protein; conditions: reverse epimerization, 50 µM NAD+, 50 mM sodium phosphate, 100 mM NaCl, pH 7.6, room temperature (23 °C)
# Tyr149 = Tyr149 (UniProt position 149, TPQSPYGKSKL); assay: kinetics; conditions: cited from earlier work
# [6] = molecular target: UDP-glucuronic acid 4-epimerase from Bacillus cereus HuA2-4 (Bacillus cereus HuA2-4); assay: SEC; gel filtration of the isolated protein (HiLoad 16/60 Superdex 200, calibrated with a gel filtration standard mixture); details in the Supporting information
# Tyr149 (position 149, …) = assay: kinetics; conditions: 23 °C, 50 mM Na2HPO4, 100 mM NaCl, pH adjusted with NaOH or HCl, Enzyme-NAD+ with saturating UDP-GlcA (1 mM) and 100 µM added NAD+. The kcat profile reports on the enzyme/NAD+/UDP-GlcA complex.
molecule,measurement,setting,value
NC(=O)C1=CN([C@@H]2O[C@H](COP(=O)(O)OP(=O)(O)OC[C@H]3O[C@@H](n4cnc5c(N)ncnc54)[C@H](O)[C@@H]3O)[C@@H](O)[C@H]2O)C=CC1 [NADH],HPLC of cofactor released from denatured enzyme,[1]; minor co-purified reduced form of the bound cofactor,"NADH was also present, the content varying slightly"
NC(=O)c1ccc[n+]([C@@H]2O[C@H](COP(=O)(O)OP(=O)(O)OC[C@H]3O[C@@H](n4cnc5c(N)ncnc54)[C@H](O)[C@@H]3O)[C@@H](O)[C@H]2O)c1 [NAD^+],co-purified cofactor,[2],The purified Y149F variant (Fig. S19) contained protein‐bound NAD^+ as the wild‐type enzyme
same,HPLC of cofactor released from denatured enzyme,"[1]; co-purified, tightly bound, one per subunit","we identified the cofactor as NAD, not NADP"
O=C(O)[C@H]1O[C@H](OP(=O)(O)OP(=O)(O)OC[C@H]2O[C@@H](n3ccc(=O)[nH]c3=O)[C@H](O)[C@@H]2O)[C@H](O)[C@@H](O)[C@@H]1O [UDP-GlcA],HPLC time course of conversion,[3],the Y149F variant converted UDP‐GlcA into UDP‐GalA without trace formation of side products
BcUGAepi (UDP-glucuronic acid 4-epimerase) (Bacillus cereus group),Km,[4],360 ± 20 µM
same,kcat,[4],0.25 ± 0.01 s⁻¹
same,Km,[5],890 ± 130 µM
same,kcat,[5],0.32 ± 0.02 s⁻¹
UDP-galactose 4-epimerase (GALE) (Escherichia coli),pKa,Tyr149,6.9
UDP-glucuronic acid 4-epimerase from Bacillus cereus HuA2-4 (enzyme),stoichiometry N,[6],2
B1,pKa,"Tyr149 (position 149, …)",5.90 (±0.05)
